Patent US8697369B2, “Method for screening a test substance for activating a receptor associated with FGF 21 activity” (National Institute of Advanced Industrial Science and …, priority 2007, dated 2014)
“Also recorded” adds a separate entry of the source.

B1: FGF21: fibroblast growth factor 21; mouse-derived protein used in Examples 1-7 and 10-13 (protein)
chain: AYPIPDSSPLLQFGGQVRQRYLYTDDDQDTEAHLEIREDGTVVGAAHRSPESLLELKALKPGVIQILGVKASRFLCQQPDGALYGSPHFDPEACSFRELLLEDGYNVYQSEAHGLPLRLPQKDSPNQDATSWGPVRFLPMPGLLHEPQDQAGFLPPEPPDVGSSDPLSMVEPLQGRSPSYAS

Key:
[1] = test system: FGFR3c/betaKlotho-expressing BaF3 cells; test: DNA synthesis (thymidine incorporation) in FGFR3c/betaKlotho-expressing BaF3 cells; assay type: cell-based, mouse; conditions: BaF3 cells expressing FGFR3c and betaKlotho
Description: (§1) A commonly used measurement method is a cell growth stimulating activity measurement method described in Ornitz, D. M., Xu, J., Colvin, J. S., McEwen, D. G., MacArthur, C. A., Coulier, F., Gao, G. and Goldfarb, M. (1996) Receptor specificity of the fibroblast growth factor family. J Biol Chem, 271, 15292-15297. The summary thereof is as follows. FGF used as a measurement target is added to a culture solution containing a cultured cell having an FGF receptor on the surface thereof, and the obtained mixture is cultured for a certain period of time. Thereafter, a labeled thymidine is added to the culture solution, followed by further culture for a certain period of time. By measuring the amount of the labeled thymidine incorporated into polymeric DNA during the culture, the degree of FGF to activate DNA synthesis is evaluated. (In the present invention as well, this method was adopted when the activity of FGF21 was measured in Examples 4, 5, 6, 8, 9, and 10.)
(§2) Whether other receptor molecules can also act as such FGF receptors was examined. An expression vector containing each FGFR (FGFR1b, R1c, R2b, R2c, R3b, R3c, and R4) (described in Ornitz, D. M., Xu, J., Colvin, J. S., McEwen, D. G., MacArthur, C. A., Coulier, F., Gao, G. and Goldfarb, M. (1996) Receptor specificity of the fibroblast growth factor family. J Biol Chem, 271, 15292-15297.) was introduced into betaKlotho-expressing BaF3 cells, so as to obtain clones that were resistant to Puromycin and G418, thereby obtaining FGFR/betaKlotho-expressing cells. Such cells were stimulated with FGF21, and the amount of DNA synthesized was measured.
The activity of FGF21 to stimulate the DNA synthesis of BaF3 cells that had expressed each FGFR (FGFR1c, R2c, F3c, and R4) as well as betaKlotho was compared with the activity of FGF19, which was evolutionally relative to FGF21. By procedures opposite to those of Example 5, namely, an expression vector containing betaKlotho was introduced into BaF3 cells that had expressed each type of FGFR, so as to obtain Puromycin- and G418-resistant clones, thereby obtaining FGFR/betaKlotho-expressing cells. The cells were stimulated with FGF21, FGF19, and FGF1 in the presence of heparin, while changing the amounts of FGF21, FGF19, and FGF1, as shown in the figure, and the amount of DNA synthesized was then measured.

[2] = target: T1, FGFR2c/betaKlotho-expressing BaF3 cells (Mus musculus, UniProt P21803+Q99N32); test: DNA synthesis (thymidine incorporation) in FGFR2c/betaKlotho-expressing BaF3 cells; assay type: cell-based; conditions: BaF3 cells expressing FGFR2c and betaKlotho; presence of heparin
T1 construct: the entire-length cDNA of mouse betaKlotho was cloned into an animal cell expression vector; expressed in transfected cells; host or cells: BaF3 (mouse pro-B) cells
Description: as §1, §2
The activity of FGF21 to stimulate the DNA synthesis of BaF3 cells that had expressed each FGFR (FGFR1c, R2c, F3c, and R4) as well as betaKlotho was compared with the activity of FGF19, which was evolutionally relative to FGF21. […] The cells were stimulated with FGF21, FGF19, and FGF1 in the presence of heparin, while changing the amounts of FGF21, FGF19, and FGF1, as shown in the figure, and the amount of DNA synthesized was then measured.

[3] = test system: betaKlotho/FGFR-expressing cells (FGFR1b, R1c, R2b, R2c, R3b, R3c, R4); test: Thymidine incorporation in betaKlotho/FGFR-expressing BaF3 cells with or without heparin; assay type: cell-based, mouse; conditions: presence versus absence of heparin
Description: An expression vector of such FGF receptor (FGFR1b, R1c, R2b, F2c, R3b, R3c, and R4) was introduced into BaF3 cells expressing betaKlotho, and each type of betaKlotho/FGFR-expressing cells were stimulated with FGF21 and FGF1 in the presence or absence of heparin, so that the ability of the cells to incorporate thymidine therein was measured. As a result, it was shown that both FGFR1c- and FGFR3c-expressing cells react with FGF21.
as §2

[4] = test system: R3c/betaKlotho-expressing cells; test: Phosphorylation of FRS2 and MAPK (Western blotting) in R3c/betaKlotho-expressing cells; assay type: cell-based, mouse; conditions: presence of heparin; 10 minutes stimulation
Description: (§3) Each FGFR/betaKlotho-expressing cells obtained in Example 6 were stimulated with FGF, and the activated state (phosphorylated state) of a signaling molecule FRS2 (fibroblast growth factor receptor substrate 2) located downstream of FGFR, and that of MAPK (mitogen activated protein kinase; alias: ERK (extracellular signal-regulated kinase; in general, there are two types of ERKs, namely, ERK1 with a molecular weight of 44 kDa and ERK2 with a molecular weight of 42 kDa)), were analyzed. Different types of cells were stimulated with each FGF in the presence of heparin for 10 minutes, and a cell lysate was then prepared. Thereafter, the phosphorylated degree was evaluated by measuring it by a Western blotting method using a commercially available anti-phosphorylation FRS2 antibody or an anti-phosphorylation MAPK antibody.

[5] = test system: FGFR4/betaKlotho-expressing cells; test: Phosphorylation of FRS2 and MAPK (Western blotting) in FGFR4/betaKlotho-expressing cells; assay type: cell-based, mouse; conditions: presence of heparin; 10 minutes stimulation
Description: as §3

[6] = target: T2, FGFR2c/betaKlotho-expressing cells (Mus musculus, UniProt P21803+Q99N32); test: Phosphorylation of FRS2 and MAPK (Western blotting) in FGFR2c/betaKlotho-expressing cells; assay type: cell-based; conditions: presence of heparin; 10 minutes stimulation
T2 construct: the entire-length cDNA of mouse betaKlotho was cloned into an animal cell expression vector; expressed in transfected cells; host or cells: BaF3 (mouse pro-B) cells
Description: as §3

Sequence of FGFR3c/betaKlotho-expressing BaF3 cells (Q61851 21-369 limits assumed): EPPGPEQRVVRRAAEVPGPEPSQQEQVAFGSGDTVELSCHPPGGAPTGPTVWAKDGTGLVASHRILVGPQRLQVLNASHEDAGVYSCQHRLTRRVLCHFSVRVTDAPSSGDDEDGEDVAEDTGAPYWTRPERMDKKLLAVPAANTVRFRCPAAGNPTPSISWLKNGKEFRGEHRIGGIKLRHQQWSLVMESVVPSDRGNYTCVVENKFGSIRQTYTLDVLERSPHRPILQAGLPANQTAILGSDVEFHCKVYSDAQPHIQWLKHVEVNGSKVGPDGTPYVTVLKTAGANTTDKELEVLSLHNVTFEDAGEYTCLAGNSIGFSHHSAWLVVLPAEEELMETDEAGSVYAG
Sequence of FGFR3c/betaKlotho-expressing BaF3 cells (Q99N32 whole entry, further chain): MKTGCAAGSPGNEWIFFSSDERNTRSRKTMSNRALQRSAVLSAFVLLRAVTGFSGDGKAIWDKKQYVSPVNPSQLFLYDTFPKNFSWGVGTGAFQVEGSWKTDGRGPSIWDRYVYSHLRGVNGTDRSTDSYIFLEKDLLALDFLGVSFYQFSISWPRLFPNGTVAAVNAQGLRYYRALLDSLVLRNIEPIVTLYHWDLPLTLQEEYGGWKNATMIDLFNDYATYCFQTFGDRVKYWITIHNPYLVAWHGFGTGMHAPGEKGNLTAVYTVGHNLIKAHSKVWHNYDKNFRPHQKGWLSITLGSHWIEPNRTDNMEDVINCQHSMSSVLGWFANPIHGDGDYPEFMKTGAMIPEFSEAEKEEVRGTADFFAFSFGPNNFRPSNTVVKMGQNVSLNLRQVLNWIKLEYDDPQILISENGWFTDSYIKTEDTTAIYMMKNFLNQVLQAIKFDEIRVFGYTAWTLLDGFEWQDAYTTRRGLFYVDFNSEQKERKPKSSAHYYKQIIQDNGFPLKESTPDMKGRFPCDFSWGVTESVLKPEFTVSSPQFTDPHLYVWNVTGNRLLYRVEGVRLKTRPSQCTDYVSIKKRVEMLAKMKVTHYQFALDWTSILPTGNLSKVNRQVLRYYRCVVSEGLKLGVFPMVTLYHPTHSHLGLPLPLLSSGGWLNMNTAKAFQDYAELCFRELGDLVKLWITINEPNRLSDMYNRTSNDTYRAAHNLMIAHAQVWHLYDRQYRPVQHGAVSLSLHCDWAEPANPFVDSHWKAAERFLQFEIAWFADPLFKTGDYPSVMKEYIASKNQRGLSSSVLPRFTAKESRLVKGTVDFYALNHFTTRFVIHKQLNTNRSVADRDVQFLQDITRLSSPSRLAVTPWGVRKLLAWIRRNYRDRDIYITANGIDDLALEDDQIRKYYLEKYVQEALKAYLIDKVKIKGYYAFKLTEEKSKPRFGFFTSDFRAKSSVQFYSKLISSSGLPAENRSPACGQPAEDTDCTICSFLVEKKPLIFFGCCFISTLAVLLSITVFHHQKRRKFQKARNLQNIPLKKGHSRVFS
Sequence of FGFR4/betaKlotho-expressing cells (Q03142 143-366 limits assumed): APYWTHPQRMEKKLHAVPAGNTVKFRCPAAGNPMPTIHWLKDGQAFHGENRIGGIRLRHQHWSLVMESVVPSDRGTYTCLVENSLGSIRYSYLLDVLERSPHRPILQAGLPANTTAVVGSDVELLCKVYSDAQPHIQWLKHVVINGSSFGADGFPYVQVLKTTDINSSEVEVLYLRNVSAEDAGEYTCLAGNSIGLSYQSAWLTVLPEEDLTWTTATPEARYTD
Sequence of FGFR4/betaKlotho-expressing cells (as listed by the source): as the sequence (Q99N32 whole entry, further chain) above
Sequence of R3c/betaKlotho-expressing cells (Q61851 21-369 limits assumed): as the sequence (Q61851 21-369 limits assumed) above
Sequence of R3c/betaKlotho-expressing cells (Q99N32 whole entry, further chain): as the sequence (Q99N32 whole entry, further chain) above
T2 sequence (P21803 22-821): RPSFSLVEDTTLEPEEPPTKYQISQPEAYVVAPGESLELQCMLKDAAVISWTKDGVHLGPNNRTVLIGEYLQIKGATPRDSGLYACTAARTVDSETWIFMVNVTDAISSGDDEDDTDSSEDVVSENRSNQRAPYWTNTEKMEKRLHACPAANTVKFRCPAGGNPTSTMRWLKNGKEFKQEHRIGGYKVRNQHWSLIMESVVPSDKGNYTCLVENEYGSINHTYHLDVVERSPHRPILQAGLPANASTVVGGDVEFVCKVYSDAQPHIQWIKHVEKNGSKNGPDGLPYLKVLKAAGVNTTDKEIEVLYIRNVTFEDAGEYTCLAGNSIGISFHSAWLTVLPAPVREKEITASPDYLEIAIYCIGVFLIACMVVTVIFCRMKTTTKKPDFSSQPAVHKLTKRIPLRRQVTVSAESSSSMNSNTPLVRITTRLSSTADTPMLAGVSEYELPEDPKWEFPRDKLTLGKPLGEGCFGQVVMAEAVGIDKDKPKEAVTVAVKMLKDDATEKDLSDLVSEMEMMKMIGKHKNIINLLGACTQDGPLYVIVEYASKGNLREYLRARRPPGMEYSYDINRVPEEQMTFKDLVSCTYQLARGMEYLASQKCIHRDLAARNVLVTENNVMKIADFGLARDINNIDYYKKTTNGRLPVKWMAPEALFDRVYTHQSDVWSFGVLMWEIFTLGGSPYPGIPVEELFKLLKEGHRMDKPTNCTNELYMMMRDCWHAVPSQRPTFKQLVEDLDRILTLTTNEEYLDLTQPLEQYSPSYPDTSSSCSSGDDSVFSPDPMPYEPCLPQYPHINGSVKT
T2 sequence (Q99N32 whole entry): as the sequence (Q99N32 whole entry, further chain) above
T1 sequence (P21803 22-821): as the sequence (P21803 22-821) above
T1 sequence (Q99N32 whole entry): as the sequence (Q99N32 whole entry, further chain) above

Molecule | DNA synthesis (thymidine incorporated into the cells) [1] | DNA synthesis (thymidine incorporated into the cells) [2] | influence of heparin on stimulus transmission activity (thymidine incorporation) [3] | phosphorylation of FRS2 and MAPK [4] | phosphorylation of FRS2 and MAPK [5] | phosphorylation of FRS2 and MAPK [6]
FGF1: conventional FGF used as a control | reacts with all of the receptors | reacts with all of the receptors | sharply increased in the presence of heparin | significantly increase the phosphorylation | significantly increase the phosphorylation | significantly increase the phosphorylation
B1 | reacted with FGF21; also recorded: activates | slightly react with FGFR2c | does not significantly influence | increases the phosphorylation | only in FGFR1c/betaKlotho-expressing cells and FGFR3c/betaKlotho-expressing cells | only in FGFR1c/betaKlotho-expressing cells and FGFR3c/betaKlotho-expressing cells
